From patent WO2011097527A2

Columns and labels:
[1] = target: recombinant human FcγRIIb (human) (UniProt P31994); assay: SPR (Biacore), global Langmuir fit
[2] = target: FcγRIIb on the cell surface (UniProt P31994); assay: binding to cell-surface FcγRIIb (cells and method not stated)

Fold (KD(Native IgG1)/KD(variant)) [1]: 150 fold
Kd [1]: 12 nM
EC50 [2]: 2 nM
Fold (cell surface EC50 against native IgG1) [2]: 220 fold
Substance: S239D/S267E (antibody)
